In article PMC9122090 (Structure (London, England : 1993), 2021):
Values belong to the binder of their own block, whether it stands above or below them.

Key:
[1] = target: T1, Nes2G SR11–12-FHOD1-N complex (human, UniProt Q9Y613 1-339; Q8WXH0 1425-1649); assay: SEC
T1 sequence (looked up) 1: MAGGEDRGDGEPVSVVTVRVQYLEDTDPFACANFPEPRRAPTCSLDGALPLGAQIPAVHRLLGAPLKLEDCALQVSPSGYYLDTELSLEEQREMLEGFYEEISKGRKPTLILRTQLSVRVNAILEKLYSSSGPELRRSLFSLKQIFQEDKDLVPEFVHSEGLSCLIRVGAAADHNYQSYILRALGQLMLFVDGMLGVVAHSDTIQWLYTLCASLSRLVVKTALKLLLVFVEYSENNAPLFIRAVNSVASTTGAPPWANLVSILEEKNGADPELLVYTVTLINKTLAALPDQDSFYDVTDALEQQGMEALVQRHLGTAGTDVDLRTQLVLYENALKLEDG
T1 sequence (looked up) 2: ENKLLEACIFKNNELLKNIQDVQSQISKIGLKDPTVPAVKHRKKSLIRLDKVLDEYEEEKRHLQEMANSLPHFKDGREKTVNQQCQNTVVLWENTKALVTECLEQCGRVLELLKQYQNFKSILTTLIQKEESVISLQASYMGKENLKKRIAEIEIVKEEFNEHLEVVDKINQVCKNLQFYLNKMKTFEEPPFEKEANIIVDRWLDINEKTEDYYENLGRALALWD

[2] = target: T2, FHOD1-N (human FHOD1 residues 1–339), wild type (human, UniProt Q9Y613 1-339); assay: SEC
T2 sequence (looked up): T1 sequence (looked up) 1

[3] = target: T2, FHOD1-N (human FHOD1 residues 1–339), …; assay: BLI
[4] = target: T2, FHOD1-N (human FHOD1 residues 1–339), …; assay: SEC; remark: listed apart in the source

binding result [1]: binds
binding result [2]: binds
B1: FHOD1 DAD domain (residues 1052–1164), released from MBP-DAD by 3C protease (domain or fragment, human, UniProt Q9Y613 1052-1164, looked up)
chain: SMKSLLTSRPEDTTHNRRSRGMVQSSSPIMPTVGPSTASPEEPPGSSLPSDTSDEIMDLLVQSVTKSSPRALAARERKRSRGNRKSLRRTLKSGLGDDLVQALGLSKGPGLEV

Kd [3]: 85 nM
B2: N-terminally AVI-tagged, biotinylated Nes1G SR17–18 (residues 1976–2200) (domain or fragment, human, UniProt Q8NF91 1976-2200, looked up)
chain: LAVLKKAFQDQKEELLKSIEDIEERTDKERLKEPTRQALQQRLRVFNQLEDELNSHEHELCWLKDKAKQIAQKDVAFAPEVDREINRLEVTWDDTKRLIHENQGQCCGLIDLMREYQNLKSAVSKVLENASSVIVTRTTIKDQEDLKWAFSKHETAKNKMNYKQKDLDNFTSKGKHLLSELKKIHSSDFSLVKTDMESTVDKWLDVSEKLEENMDRLRVSLSIWD
modifications: biotin on the AVI sequence

binding result [4]: binds
B4: Nes1G SR18 (human nesprin-1 giant residues 2076–2200) (domain or fragment, UniProt Q8NF91-1 2076-2200, looked up)
chain: ENQGQCCGLIDLMREYQNLKSAVSKVLENASSVIVTRTTIKDQEDLKWAFSKHETAKNKMNYKQKDLDNFTSKGKHLLSELKKIHSSDFSLVKTDMESTVDKWLDVSEKLEENMDRLRVSLSIWD

binding result [4]: binds
B7: Nes1G SR17–18 (human nesprin-1 giant residues 1976–2200) (domain or fragment, UniProt Q8NF91-1 1976-2200, looked up)
chain: B2 chain

The remaining lines, values behind:

B3: N-terminally AVI-tagged, biotinylated Nes2G SR11–12 (residues 1425–1649) (domain or fragment, human, UniProt Q8WXH0 1425-1649, looked up)
chain: T1 sequence (looked up) 2
modifications: biotin on the AVI sequence
Kd [3]: 375 nM

B5: N-terminally AVI-tagged, biotinylated Nes1G SR18 (residues 2076–2200) (domain or fragment, human, UniProt Q8NF91 2076-2200, looked up)
chain: B4 chain
modifications: biotin on the AVI sequence
binding result [3]: binds

B6: Nes2G SR11–12 (human nesprin-2 giant residues 1425–1649) (domain or fragment, UniProt Q8WXH0-1 1425-1649, looked up)
chain: T1 sequence (looked up) 2
binding result [4]: binds
